# From publication PMC12126530, “A low-complexity linker as a driver of intra- and intermolecular interactions in DNAJB chaperones” (Nature Communications, 2025)
# B1: DNAJB6 JD (domain or fragment)
# chain: not shown
# notes: DNAJB6, construct truncated immediately after the J-domain; 15N-labelled for NMR; also called isolated JD of DNAJB6; DNAJB6 J-domain; source: E. coli BL21(DE3), purified (HisTrap, TEV cleavage, C18 reverse phase HPLC); not shown: His-tag, N-terminal, cleaved
# B2: DNAJB1 JD-GF (domain or fragment)
# chain: not shown
# modifications: 15N-labelled; limits by convention: ends just before helix 5 (DNAJB6 helix 5 is 96-104, and DNAJB6 F91 aligns with DNAJB1 Y92, giving about 97-105); start as in PDB 6Z5N
# B3: DNAJB1 JD (domain or fragment)
# chain: not shown
# notes: DNAJB1, construct truncated immediately after the J-domain; also called DNAJB1 1-67; JD of DNAJB1; source: E. coli BL21(DE3), purified (HisTrap, TEV cleavage, C18 reverse phase HPLC); not shown: His-tag, N-terminal, cleaved
# B4: Fluorescently labelled DNAJB6 JD (with an additional C-terminal GSSC sequence) (domain or fragment)
# chain: not shown
# modifications: Fluorescein-5-Maleimide on the C-terminal cysteine
# notes: DNAJB6 J-domain construct; not shown: His-tag, N-terminal, cleaved
# B5: DNAJB1 JD-GF (domain or fragment)
# chain: not shown
# modifications: 15N-labelled; limits by convention: ends just before helix 5 (DNAJB6 helix 5 is 96-104, and DNAJB6 F91 aligns with DNAJB1 Y92, giving about 97-105); start as in PDB 6Z5N
# Columns and labels:
# Conditions in all cases: both partners purified
# [1] = target: T1, Full-length Hsc70-T204A (ATPase deficient mutant) (human, UniProt P11142 1-646, T204A); assay: NMR 15N-CPMG relaxation dispersion and exchange-induced shifts; 15N-labelled JDP observed, unlabelled Hsc70-T204A added to a molar ratio of 0.1 (DNAJB6 JD-GF 200 uM, DNAJB6 JD 350 uM, DNAJB1 300 uM); 25 °C; 20 mM HEPES pH 7.0, 50 mM KCl, 2.5 mM MgCl2; ATP-regenerating system with 2.5 mM ATP; fit to a two-state binding model
# T1 construct: Hsc70, the constitutively expressed cytosolic form of human Hsp70; full length with the ATPase-deficient mutation T204A; source: pET-15b vector, expression at 25 °C overnight, purified (StrepTactin, TEV cleavage, Superdex 200)
# [2] = target: T1, Full-length Hsc70-T204A (ATPase …); assay: fluorescence polarisation; direct binding: Hsc70-T204A titrated into 300 nM fluorescein-labelled DNAJB6 JD; 25 °C; 20 mM HEPES pH 7.0, 50 mM KCl, 5 mM MgCl2, 5 mM ATP; four-point logistic fit, 1:1 model
# [3] = target: T2, Full-length Hsc70-T204A (ATPase deficient mutant) (human, UniProt P11142 1-646, T204A); assay: NMR 15N-CPMG relaxation dispersion with exchange-induced shifts; 15N-labelled JDP (DNAJB6 JD-GF 200 μM, DNAJB6 JD 350 μM, DNAJB1 300 μM) with unlabelled Hsc70-T204A at a molar ratio of 0.1, ATP-regenerating system, 20 mM HEPES pH 7.0, 50 mM KCl, 2.5 mM MgCl2, 25 °C, 600, 800 and 950 MHz; fit to a 2-state model; kex = kon app + koff
# T2 construct: Hsc70, the constitutively expressed cytosolic form of human Hsp70, full length, with T204A; 5 mM ATP in fluorescence polarisation; also called hydrolysis deficient Hsc70 mutant T204A; source: pET-15b vector, expressed at 25 °C overnight, purified (StrepTactin, TEV cleavage, Superdex 200)
Binder,Kd [1],koff [1],kon [1],Kd [2],Kd [3]
B1,3.4 ± 1.1 µM,2740 ± 51 s⁻¹,8e+08 M⁻¹ s⁻¹,,
B2,288 ± 13 µM,1700 ± 40 s⁻¹,5.91e+06 M⁻¹ s⁻¹,,
B3,~450 µM,,,,
B4,,,,18 ± 6.5 µM,
B5,,,,,~300 µM
